Measurements taken from the nanobody polyreactivity screen of Harvey et al. (2022).

Assay: yeast display, Sf9 membrane polyspecificity reagent, FACS + sequencing; frameworks hold sequencing errors
Outline: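 Nanobodies from a synthetic yeast display library (Saccharomyces cerevisiae BJ5465), induced 36–48 hours with galactose, were stained 1 hour at 4 °C with 10% biotinylated, detergent-solubilized Sf9 membrane reagent, enriched on streptavidin microbeads, then FACS-sorted. Anti-HA (expression) and streptavidin (reagent binding) fluorescence set low and high (top ~1%) gates. Polyreactivity labels come from the gate of origin. Genes were colony-PCR amplified, MiSeq 2 × 250 sequenced and filtered by CDR length.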

Sequence	polyreactivity (PSR sort gate)
QVQLLESGGGLVQAGGSLRLSCAASGRIFKFNAMGWYRQAPGKERDLVAAISKRGGSTYYADSVKGRFTISRDNAKNTVYLQMISLKPEDTAVYYCAADRSPYGGDYDYWGQGTQVTVSS	high polyreactivity
QVQLEESGGGLVQAGGSLRLSCAASGRTFGRNAMGWYRQAPGERELVAVISRGGSTYYADSVKGRFTISRDNAKNSVYLQMNSLIPEDTAVYYCNADTVYTRTAPYDYWGQGTQVTVSS	low polyreactivity
QVQLVESGGGLVQAGGSLRLSCAASGSTFVSNAMGWYRQAPGKERELVAAISKGDGNTYYADSVKGRFTISRDNAKNTVYLQMNSLKPEDTAVYYCAATYHYYSRWYDYWGQGTQVTVSS	high polyreactivity
QVQLVESGGGLVQAGGSLRLSCAASGSIFFWYTMGWYRQAPGKERDLVATITGSGSSTTYADSVKGRFTISRDNAKNTVYLQMNSLKPEDTAVYSCAAADIIDHSFPYDYWGQGTQVTVSS	low polyreactivity
QVQLVESGGGLVQAGGSLRLSCAASGRTFEGYAMGWYRQAPGKERELVAAISNSGGSTYYADSVKGRFTIARDNAKNTVYLQMNSLKPEDTAVYYCAALSRIPRYGYWGQGTQVTVSA	high polyreactivity
QVQLVESGGGLVQAGGSLRLTCAASGLISTPNALGWYRQAPGKEREFVASISSRGGSTYYADSVKGRFTISRDNAMNTVYLQMNSLKPEDTAVYYCAADAYREFYYEYYYWGQGTQVTVSS	low polyreactivity
QVQLVESGGGLVQAGGSLRLSSAASGRIFPGYAMGWYRQAPGKEREFVAAITRSGGRTYYADSVKGRFTISRDNAKNTVYVQMNSLKPEDTAVYYCNRVYEYWSEYDYWGQGTQVTVSS	high polyreactivity
PVQLVESGGGLVQAGGSLRLSCAASGSTFRRNVMGWYRQAPGKEREFVAAISYRTGSTYYADSVKGRFTISRDNAKNTVYLQMNSLKPEDTAVYYCAASSQWVGYYYWGQGTQVTVSS	high polyreactivity
QVQLVESGGGLVQAGGSLRLSCAASGRTFVVYAMGWYRQAPGKERELVAAISYSGGSTYYADSVKGRFTISRDNAKNTVYLQMNSLKPEDTAVYYCAAVHLGYYHIYGLGYWGQGTQVTVSS	high polyreactivity
QVQLVESGGGLVQAGGSLRLSCAASGITFGRNTMGWYRQAPGNERELVAAIDSGGNTYADSVKGRFTISRDNAKNTFYLQMNSLKPEDTAVYYCCVDGGEFSSYGYWGQGTQVTVSS	low polyreactivity
QVQIVESGGGLVQEGGSLRLSFAASGSTFYYYPMGWYRQAPGKERELVAAITSGDTTNYADSVKGRFTISRDNAKNTVYLQMNSLKPEDTAVYYCAVDLNTTAFYPVAATYLDDYWGQGTQVTVSS	low polyreactivity
QVQLVESGGGLVQAGGSLRLSCAASGSTFGWYAMGWYRQAPGKERELVATISSGGSTYYADSVKGRFTISRDNAKNTVYLQMNCLKPEDTAVYYCAADYLTPWVYWFSYGLDYWGQGTQVTVSS	low polyreactivity
QVQLVESGGGLVQAGGSLRLSCAASGSIFPLYAMGWYRQAPGKERELVADITVSGGSTYYADSVKGRFTISRDNAKNTVYLQMNSLKPEDTAVYYCAKDNGPWFAYDYWGQGTQVTVSS	low polyreactivity
QFQLVESGGGLVQAGGSLRLSCAASGIIFVSYAMGGYIQAPGKETEFVAGINWNGGSTYYADSVKGRFTISRDNAKNTVYLQMNSLKPEDTAVYYCNAENYRVRQRSSVKYDYWGHGTQVTVSS	low polyreactivity
QVQLVDSGGGLVQAGGSLRLSCAASGSTFISYAMGWYRQAPGKERELVAAISRRGDSTYYADSVKGRFTISRDNAKNNVYLEMNSLKPEDTAVYYCAADVSGDKGSIHMNYWGQGTLVTVSS	low polyreactivity
QVQLVESGGGLVQAGGSLRLSCAASGFIFRYYAMGWYRQAPGKERELVAAIRRGGSTSYADSVKGRFTISRDNAKNTVYLQMNSLKPEDTAVYYCNALGNFGMDYWGQGTQVTVSS	high polyreactivity
QVQLVESGGGLVQAGGSLRLSCAASGFIFWLYAMGWYRQAPGKEREVVAGITRGGGSTYYADSVKGRFTISRDNAKNTVYLQMNSLKPEDTAVYYCAADAWSSYLDRPFDYWGQGTQVTVSS	high polyreactivity
